Assays:
[1] = target: PfHsp70‐x C‐terminal truncated version with a missing EEVN motif (Plasmodium falciparum); assay: SPR; PfHsp70‐x or PfHsp70‐xT immobilised on ProteOn GLC chips, hHop as analyte at 125-2000 nM, 25°C, PBS‐Tween pH 7.4, no nucleotide, Langmuir model
[2] = target: Plasmodium falciparum Hsp70‐x (full length) (Plasmodium falciparum); assay: as above
[3] = target: PfHsp70‐x C‐terminal truncated version with a missing EEVN motif (Plasmodium falciparum); assay: SPR; PfHsp70‐x or PfHsp70‐xT immobilised on ProteOn GLC chips, hHop as analyte at 125-2000 nM, 25°C, PBS‐Tween pH 7.4, with 5 mM ADP, Langmuir model
[4] = target: Plasmodium falciparum Hsp70‐x (full length) (Plasmodium falciparum); assay: as above
[5] = target: PfHsp70‐x C‐terminal truncated version with a missing EEVN motif (Plasmodium falciparum); assay: SPR; PfHsp70‐x or PfHsp70‐xT immobilised on ProteOn GLC chips, hHop as analyte at 125-2000 nM, 25°C, PBS‐Tween pH 7.4, with 5 mM ATP, Langmuir model
[6] = target: Plasmodium falciparum Hsp70‐x (full length) (Plasmodium falciparum); assay: as above

## human Hsp70‐Hsp90 organizing protein (from UniProt P31948 1-543) (natural protein)
[1]
  Kd: 2100 nM
  koff: 1.01e-05 s⁻¹
  kon: 24.7 M⁻¹ s⁻¹
[2]
  Kd: 30.1 nM
  koff: 2.3e-05 s⁻¹
  kon: 4300 M⁻¹ s⁻¹
[3]
  Kd: 1660 nM
  koff: 2.1e-05 s⁻¹
  kon: 42.6 M⁻¹ s⁻¹
[4]
  Kd: 23.1 nM
  koff: 3.7e-05 s⁻¹
  kon: 3300 M⁻¹ s⁻¹
[5]
  Kd: 41000 nM
  koff: 0.00032 s⁻¹
  kon: 54.1 M⁻¹ s⁻¹
[6]
  Kd: 380 nM
  koff: 0.00044 s⁻¹
  kon: 3470 M⁻¹ s⁻¹
